Measured values as given in patent US10538802B2, “Polypeptide substrate for the detection of von Williebrand factor cleaving protease ADAMTS13” (IMMUCOR GTI DIAGNOSTICS, INC., priority 2011, dated 2020).

Target: T1, ADAMTS13 (Homo sapiens, UniProt Q76LX8)
T1 construct: tissue Gen-Probe GTI Diagnostics (ATS-13 kit calibrators, controls and proficiency samples); George King Biomedical Inc. (FACT, A-FACT, B-FACT plasmas) ATS-13; host or cells: plasma
T1 sequence (Q76LX8 75-1427): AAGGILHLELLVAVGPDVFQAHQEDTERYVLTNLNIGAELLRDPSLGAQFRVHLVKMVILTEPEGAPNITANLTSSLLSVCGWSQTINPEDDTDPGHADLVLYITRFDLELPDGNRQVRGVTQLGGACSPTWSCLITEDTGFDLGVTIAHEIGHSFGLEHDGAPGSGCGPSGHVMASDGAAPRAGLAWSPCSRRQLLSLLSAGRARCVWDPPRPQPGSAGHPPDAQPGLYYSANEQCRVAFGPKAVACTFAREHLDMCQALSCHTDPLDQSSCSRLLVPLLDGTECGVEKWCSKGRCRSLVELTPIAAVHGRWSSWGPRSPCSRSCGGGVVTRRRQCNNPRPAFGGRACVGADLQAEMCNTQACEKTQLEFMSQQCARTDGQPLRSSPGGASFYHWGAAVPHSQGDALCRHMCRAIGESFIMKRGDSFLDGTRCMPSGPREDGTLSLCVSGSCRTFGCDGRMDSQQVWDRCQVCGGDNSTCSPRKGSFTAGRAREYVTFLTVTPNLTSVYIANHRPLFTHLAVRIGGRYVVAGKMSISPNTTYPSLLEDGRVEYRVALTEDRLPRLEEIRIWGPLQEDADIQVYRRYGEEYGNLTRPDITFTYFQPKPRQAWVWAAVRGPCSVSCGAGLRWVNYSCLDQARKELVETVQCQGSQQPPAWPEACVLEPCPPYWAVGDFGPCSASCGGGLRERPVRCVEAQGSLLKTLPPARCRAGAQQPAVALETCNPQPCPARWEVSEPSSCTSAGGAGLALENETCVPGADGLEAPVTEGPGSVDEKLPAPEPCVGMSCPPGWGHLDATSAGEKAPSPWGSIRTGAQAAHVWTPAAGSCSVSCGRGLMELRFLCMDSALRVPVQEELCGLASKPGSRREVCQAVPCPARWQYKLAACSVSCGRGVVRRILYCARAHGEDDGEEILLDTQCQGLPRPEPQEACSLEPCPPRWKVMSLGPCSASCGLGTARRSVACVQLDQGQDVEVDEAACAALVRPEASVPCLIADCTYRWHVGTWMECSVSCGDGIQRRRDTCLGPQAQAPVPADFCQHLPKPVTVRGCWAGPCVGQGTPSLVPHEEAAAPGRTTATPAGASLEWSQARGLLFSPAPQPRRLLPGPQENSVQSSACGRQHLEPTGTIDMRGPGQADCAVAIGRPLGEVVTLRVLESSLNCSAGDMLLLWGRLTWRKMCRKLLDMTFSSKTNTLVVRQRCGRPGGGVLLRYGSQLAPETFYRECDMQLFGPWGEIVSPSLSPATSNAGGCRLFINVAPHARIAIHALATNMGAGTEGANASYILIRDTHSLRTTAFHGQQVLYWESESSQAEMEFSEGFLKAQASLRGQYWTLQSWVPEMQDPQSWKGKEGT
Experiment: ADAMTS13 activity assay with fluorogenic (FRET) polypeptide substrate and diluted plasma samples
Type: biochemical
Description: The procedure in this example was performed substantially as described in Kokame, K., Y. Nobe, Y. Kokubo, A. Okayama, and T. Miyata. 2005. FRETS-VWF73, a first fluorogenic substrate for ADAMTS13 assay. Br. J. Haematol. 129:93-100, but using SEQ ID NO: 1 in place of the 73 amino acid substrate described therein. The FRETS-VWF73 substrate solution was dissolved in 25% dimethyl sulphoxide/water to prepare the 100 microM stock solution. The GTI FRET4 SEQ ID NO: 1 was dissolved in 100% DMSO. Both substrates were diluted to equal concentrations using ATS-13 substrate buffer (Gen-Probe GT1 Diagnostics, Inc., U.S.A., Cat#ATS-13).
Plasma samples were diluted according to the ATS-13 Direction Insert using ATS-13 specimen diluent (Gen-Probe GTI Diagnostics, Inc., U.S.A., Cat# ATS-13). The diluted plasma samples were mixed with the diluted substrate and the fluorescence was read at 0, 5, 10, 15, 20, 30, 45 minutes using a Biotek FLX800 at the appropriate excitation and emission wavelengths for each substrate.
The fluorophore-quencher pair in the SEQ ID NO: 1 polypeptide substrate is FAM-5/TQ 2^Tm (Ex 485±20; Em 528±20; AAT Bioquest, Inc. Sunnyvale, Calif. U.S.A.). The fluorophore and quencher pair of FRETS-VWF73 (Nma/Dnp) described in Kokame has been substituted with FAM-5 and TQ_2 respectively in GTI_FRET4 SEQ ID NO: 1. Furthermore, in the SEQ ID NO: 1 polypeptide the position of the fluorophore (FAM-5) and quencher (TQ_2) has been swapped relative to the position of the fluorophore and quencher of the FRETS-VWF73 construct. Therefore, for GTI_FRET4 SEQ ID NO: 1, attachment of the fluorophore (FAM-5) occurs by substituting asparagine with cystine at position 15. The quencher (TQ_2) was attached by substituting glutamine with lysine at position 4 (FIG. 2 and Table 4).
For this experiment, substrate concentration and fluorescence reader settings determined on the previous experiment are used. The specimens tested (listed in Table 3), include a panel of proficiency samples prepared for use with ATS-13 (Gen-Probe GTI Diagnostics, Inc., U.S.A., Cat# ATS-13) which included samples with normal or deficient ADAMTS13 activity levels. In addition, six Factor Assay ConTrol plasma were used (2 FACT, 2 A-FACT and 2 B-FACT, from George King Biomedical Inc., Kansas, USA). The assays for the SEQ ID NO: 1 substrate and for the prior art FRETS-VWF73 assay were performed generally as according to the procedure described in Example 1. Substrate is prepared according to the conditions used for initial testing of the substrate, which prepared the molar amount of SEQ ID NO: 1 polypeptide substrate used in the assay to be equivalent to the molar amount of FRETS-VWF73 used in the prior art. The […] assays were read at 0, 5, 10, 15, 20, 30, 45 minutes.
Testing of substrate for cleavability by ADAMTS13 is determined as is generally described in Example 1. […]

- % Normal ADAMTS13 Values Calculated Using GTI_FRET4 Substrate (sample Calibrator D, incubation 15 Minutes): 58 % Normal
- % Normal ADAMTS13 Values Calculated Using GTI_FRET4 Substrate (sample Calibrator D, incubation 30 Minutes): 59 % Normal
- % Normal ADAMTS13 Values Calculated Using GTI_FRET4 Substrate (sample Calibrator D, incubation 45 Minutes): 59 % Normal
- % Normal ADAMTS13 Values Calculated Using GTI_FRET4 Substrate (sample Calibrator D, incubation 60 Minutes): 60 % Normal
- % Normal ADAMTS13 Values Calculated Using GTI_FRET4 Substrate (sample Calibrator D, incubation 75 Minutes): 61 % Normal
- % Normal ADAMTS13 Values Calculated Using GTI_FRET4 Substrate (sample Calibrator D, incubation 90 Minutes): 62 % Normal
- Increase in Fluorescence Values (X minute - 0 minute Reading) (sample Calibrator E, 15 min): 18,718 RFU
- Increase in Fluorescence Values (X minute - 0 minute Reading) (sample Calibrator E, 30 min): 35,085 RFU
- Increase in Fluorescence Values (X minute - 0 minute Reading) (sample Calibrator E, 45 min): 49,418 RFU
- Increase in Fluorescence Values (X minute - 0 minute Reading) (sample Calibrator E, 60 min): 61,068 RFU
- Increase in Fluorescence Values (X minute - 0 minute Reading) (sample Calibrator E, 75 min): 70,603 RFU
- Increase in Fluorescence Values (X minute - 0 minute Reading) (sample Calibrator E, 90 min): 82,999 RFU
- % Normal ADAMTS13 Values Calculated Using GTI_FRET4 Substrate (sample Calibrator E, incubation 15 Minutes): 101 % Normal
- % Normal ADAMTS13 Values Calculated Using GTI_FRET4 Substrate (sample Calibrator E, incubation 30 Minutes): 101 % Normal
- % Normal ADAMTS13 Values Calculated Using GTI_FRET4 Substrate (sample Calibrator E, incubation 45 Minutes): 100 % Normal
- % Normal ADAMTS13 Values Calculated Using GTI_FRET4 Substrate (sample Calibrator E, incubation 60 Minutes): 100 % Normal
- % Normal ADAMTS13 Values Calculated Using GTI_FRET4 Substrate (sample Calibrator E, incubation 75 Minutes): 98 % Normal
- % Normal ADAMTS13 Values Calculated Using GTI_FRET4 Substrate (sample Calibrator E, incubation 90 Minutes): 98 % Normal
- Increase in Fluorescence Values (X minute - 0 minute Reading) (sample MON110707, 15 min): 17,881 RFU
- Increase in Fluorescence Values (X minute - 0 minute Reading) (sample MON110707, 30 min): 33,432 RFU
- Increase in Fluorescence Values (X minute - 0 minute Reading) (sample MON110707, 45 min): 46,848 RFU
- Increase in Fluorescence Values (X minute - 0 minute Reading) (sample MON110707, 60 min): 58,747 RFU
- Increase in Fluorescence Values (X minute - 0 minute Reading) (sample MON110707, 75 min): 68,370 RFU
- Increase in Fluorescence Values (X minute - 0 minute Reading) (sample MON110707, 90 min): 78,371 RFU
- % Normal ADAMTS13 Values Calculated Using GTI_FRET4 Substrate (sample MON110707, incubation 15 Minutes): 97 % Normal
- % Normal ADAMTS13 Values Calculated Using GTI_FRET4 Substrate (sample MON110707, incubation 30 Minutes): 96 % Normal
- % Normal ADAMTS13 Values Calculated Using GTI_FRET4 Substrate (sample MON110707, incubation 45 Minutes): 95 % Normal
- % Normal ADAMTS13 Values Calculated Using GTI_FRET4 Substrate (sample MON110707, incubation 60 Minutes): 96 % Normal
- % Normal ADAMTS13 Values Calculated Using GTI_FRET4 Substrate (sample MON110707, incubation 75 Minutes): 95 % Normal
- % Normal ADAMTS13 Values Calculated Using GTI_FRET4 Substrate (sample MON110707, incubation 90 Minutes): 92 % Normal
- Increase in Fluorescence Values (X minute - 0 minute Reading) (sample Positive Control High, 15 min): 9,146 RFU
- Increase in Fluorescence Values (X minute - 0 minute Reading) (sample Positive Control High, 30 min): 17,281 RFU
- Increase in Fluorescence Values (X minute - 0 minute Reading) (sample Positive Control High, 45 min): 24,859 RFU
- Increase in Fluorescence Values (X minute - 0 minute Reading) (sample Positive Control High, 60 min): 31,857 RFU
- Increase in Fluorescence Values (X minute - 0 minute Reading) (sample Positive Control High, 75 min): 39,838 RFU
- Increase in Fluorescence Values (X minute - 0 minute Reading) (sample Positive Control High, 90 min): 47,473 RFU
- % Normal ADAMTS13 Values Calculated Using GTI_FRET4 Substrate (sample Positive Control High, incubation 15 Minutes): 48 % Normal
- % Normal ADAMTS13 Values Calculated Using GTI_FRET4 Substrate (sample Positive Control High, incubation 30 Minutes): 49 % Normal
- % Normal ADAMTS13 Values Calculated Using GTI_FRET4 Substrate (sample Positive Control High, incubation 45 Minutes): 50 % Normal
Sequence: DREKAPNLVYMVTGCPASDEIKRLPGDIQVVPIEVIGWPNAPILIQDEETLPREAPDLVLQR [GTI_FRET4]
